Results reported in article PMC10113545, “OsWRKY76 positively regulates drought stress via OsbHLH148-mediated jasmonate signaling in rice”.

T1: GST-OsWRKY76 (Oryza sativa, UniProt Q6EPZ2 1-327)
T1 sequence: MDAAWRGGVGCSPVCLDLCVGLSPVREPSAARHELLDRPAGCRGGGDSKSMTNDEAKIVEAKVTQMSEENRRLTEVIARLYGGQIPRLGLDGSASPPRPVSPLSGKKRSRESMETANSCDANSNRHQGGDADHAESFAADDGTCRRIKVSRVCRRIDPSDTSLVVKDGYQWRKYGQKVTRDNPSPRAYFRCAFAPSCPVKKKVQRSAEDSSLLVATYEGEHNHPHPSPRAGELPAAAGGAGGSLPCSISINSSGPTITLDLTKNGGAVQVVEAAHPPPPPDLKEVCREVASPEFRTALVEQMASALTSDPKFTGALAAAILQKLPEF

B1: OsDREB1E probe (6-FAM) (dsDNA)
DNA 1: GCACGGGTAGTTTTGACCTATAGGAGTGTA
DNA 2: TACACTCCTATAGGTCAAAACTACCCGTGC
B2: OsDREB1E unlabeled competitor probe (dsDNA)
DNA 1: B1 DNA 1
DNA 2: B1 DNA 2

What was measured:
GST-OsWRKY76 [1] = biological target: T1, GST-OsWRKY76; assay: EMSA; EMSA as in Gao et al. 2019; buffer, salt, pH and temperature not stated; conditions: protein: recombinant; tags: N-terminal GST (pGEX-4T-3); label: 6-FAM 5' end (strand(s) not specified); blunt
GST-OsWRKY76 [2] = biological target: T1, GST-OsWRKY76; assay: competition; 10x and 50x molar excess of unlabeled probe reduced the N1 shift; EMSA as in Gao et al. 2019; buffer, salt, pH and temperature not stated; conditions: protein: recombinant; tags: N-terminal GST (pGEX-4T-3); blunt

| Binder | binding result (GST-OsWRKY76 [1]) | binding result (GST-OsWRKY76 [2]) |
| --- | --- | --- |
| B1 | binds | – |
| B2 | – | binds |
